Experimental findings from publication doi:10.1101/569459 (bioRxiv, 2019) are described below.

Residue numbers refer to the chain shown, from its start.

This test concerns the target MBP::PP1β (UniProt P62140 1-327). The experiment in a line: pull-down.

Chain of MBP::PP1β (P62140 whole entry): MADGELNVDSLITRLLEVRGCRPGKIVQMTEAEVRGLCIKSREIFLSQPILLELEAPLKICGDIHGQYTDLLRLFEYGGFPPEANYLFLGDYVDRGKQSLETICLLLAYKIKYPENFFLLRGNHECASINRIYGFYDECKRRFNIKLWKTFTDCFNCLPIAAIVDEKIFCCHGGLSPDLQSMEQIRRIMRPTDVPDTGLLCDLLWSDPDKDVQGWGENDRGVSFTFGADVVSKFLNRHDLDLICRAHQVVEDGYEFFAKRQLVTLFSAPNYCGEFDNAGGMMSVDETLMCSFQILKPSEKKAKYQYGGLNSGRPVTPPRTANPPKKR

B1: GST::MKLP1_(620-858) (wild type) (domain or fragment, UniProt Q02241-2 620-856, looked up)
chain: ETTMKWEKECERRVAAKQLEMQNKLWVKDEKLKQLKAIVTEPKTEKPERPSRERDREKVTQRSVSPSPVPLLFQPDQNAPPIRLRHRRSRSAGDRWVDHKPASNMQTETVMQPHVPHAITVSVANEKALAKCEKYMLTHQELASDGEIETKLIKGDIYKTRGGGQSVQFTDIETLKQESPNGSRKRRSSTVAPAQPDGAESEWTDVETRCSVAVEMRAGSQLGPGYQHHAQPKRKKP
As for B1, the binding result is reported as “binds”.

B2: GST::MKLP1_(620-858) AQA mutant (domain or fragment, UniProt Q02241-2 620-856, looked up)
chain: B1 chain with V167A, F169A
On to B2, for which the binding result was “binds”.
